Test results reported in patent publication WO2015086830A1 (dated 2015).

Columns and labels:
[1] = target: VEGF (vascular endothelial growth factor) (UniProt P15692-4 27-191, limits assumed); assay: cell-based or functional assay
VEGF165 = target: T1, VEGF165 (UniProt P15692-4 27-191); assay: in vitro binding; method not stated
T1 construct: P15692 is the human VEGFA entry; VEGF165 is one isoform of that entry; also called VEGFA isoform 165
T1 sequence (P15692 other isoform, or with tags, fused parts or gaps limits assumed): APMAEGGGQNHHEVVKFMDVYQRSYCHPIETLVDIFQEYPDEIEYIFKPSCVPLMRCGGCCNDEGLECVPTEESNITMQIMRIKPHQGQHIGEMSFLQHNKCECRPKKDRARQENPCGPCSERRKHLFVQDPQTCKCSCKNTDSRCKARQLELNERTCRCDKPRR

VEGF (vascular endothelial growth factor), sequence (P15692 other isoform, or with tags, fused parts or gaps limits assumed): as above

- VEGF induced HUVEC proliferation, IC50 [1]: 0.19 nM
- Kd (VEGF165): 0.0284 nM
B1: scFv3, anti-VEGF-scFv comprising SEQ ID No.: 3 (scFv)
scFv: EIVMTQSPSTLSASVGDRVIITCQASEIIHSWLAWYQQKPGKAPKLLIYLASTLASGVPSRFSGSGSGAEFTLTISSLQPDDFATYYCQNVYLASTNGANFGQGTKLTVLGGGGGSGGGGSGGGGSGGGGSEVQLVESGGGLVQPGGSLRLSCTASGFSLTDYYYMTWVRQAPGKGLEWVGFIDPDDDPYYATWAKGRFTISRDNSKNTLYLQMNSLRAEDTAVYYCAGGDHNSGWGLDIWGQGTLVTVSS
notes: About 26.3 kDa
